In paper PMC13384500, “RNA selectively modulates activity of virulent amyloid PSMα3 and host-defense LL-37 via phase separation and aggregation dynamics”:

Tests used:
PSMα3 [1] = molecular target: T1, PSMα3 (Staphylococcus aureus, UniProt P0C805); test: EMSA; apparent Kd, Hill fit with n > 1; 40 nM RNA; weaker than Poly(AU); details: tags: none (unlabeled)
T1 chain: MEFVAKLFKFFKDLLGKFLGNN

PSMα3 [2] = molecular target: T1, PSMα3; test: EMSA; apparent Kd, Hill fit with n > 1; 40 nM RNA; details: tags: none (unlabeled)

Row | Binder | Kd (PSMα3 [1]) [µM] | Kd (PSMα3 [2]) [µM]
1 | AAAAAAAAAAAAAAAAAAAAAAAAAAAAAA (ssRNA) [Poly(A) RNA (30-nt oligoA)] | 94.5 ± 5.4 | 
2 | Poly(AU) RNA (30-nt oligoA/oligoU) (dsRNA) RNA 1: AAAAAAAAAAAAAAAAAAAAAAAAAAAAAA RNA 2: UUUUUUUUUUUUUUUUUUUUUUUUUUUUUU |  | 61.8 ± 1.6
